Molecular target: T1, human recombinant Flag-DAXX protein (human, UniProt Q9UER7 1-740)
T1 construct: DAXX (death-domain associated protein), human, recombinant; Commercial protein; no catalogue number is printed in the main text; source: bought: OriGene Technologies (recombinant protein)
Assay: pull-down; 50 ng His-PTEN immobilised on 30 ul nickel beads, incubated with 200 ng Flag-DAXX for 2 h at 4 °C; bound proteins eluted and immunoblotted (the legend says IP anti-PTEN, IB anti-Flag)
Conditions: both partners purified

T1 sequence (Q9UER7 whole entry): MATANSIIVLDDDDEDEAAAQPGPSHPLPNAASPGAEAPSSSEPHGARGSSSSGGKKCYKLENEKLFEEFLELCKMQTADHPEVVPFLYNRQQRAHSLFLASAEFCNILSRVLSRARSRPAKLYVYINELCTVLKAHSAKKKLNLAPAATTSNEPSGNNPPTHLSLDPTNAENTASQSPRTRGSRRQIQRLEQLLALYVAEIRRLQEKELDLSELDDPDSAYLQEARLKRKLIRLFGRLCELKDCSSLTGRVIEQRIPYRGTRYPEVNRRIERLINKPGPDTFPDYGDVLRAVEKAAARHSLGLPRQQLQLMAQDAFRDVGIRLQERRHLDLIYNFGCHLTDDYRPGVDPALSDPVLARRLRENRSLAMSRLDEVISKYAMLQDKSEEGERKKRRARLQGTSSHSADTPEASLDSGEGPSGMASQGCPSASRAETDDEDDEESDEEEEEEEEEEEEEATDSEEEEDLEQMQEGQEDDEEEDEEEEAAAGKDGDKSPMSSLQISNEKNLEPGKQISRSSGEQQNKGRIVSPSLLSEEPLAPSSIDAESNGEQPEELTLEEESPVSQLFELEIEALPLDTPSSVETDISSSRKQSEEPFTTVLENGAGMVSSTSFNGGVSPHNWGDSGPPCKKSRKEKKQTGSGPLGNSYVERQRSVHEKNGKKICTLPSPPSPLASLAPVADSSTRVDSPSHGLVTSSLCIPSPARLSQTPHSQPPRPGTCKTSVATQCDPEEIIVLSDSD

B1: human recombinant His-PTEN (natural protein)
chain: not shown
notes: PTEN (phosphatase and tensin homolog), human, recombinant; Commercial protein; no catalogue number is printed in the main text (reagents are in the Supplementary Methods); source: bought: ENZO Life Science (recombinant protein)
  binding result: binds
